Source: article PMC6336717 (Frontiers in Immunology, 2018)

T1: FH_(19−20) (C-terminal part of factor H, SCR 19-20), recombinant (human, UniProt P08603 1103-1231)
T1 construct: Complement factor H, human, SCR domains 19-20; also called fragment FH_(19−20); source: recombinant
T1 sequence: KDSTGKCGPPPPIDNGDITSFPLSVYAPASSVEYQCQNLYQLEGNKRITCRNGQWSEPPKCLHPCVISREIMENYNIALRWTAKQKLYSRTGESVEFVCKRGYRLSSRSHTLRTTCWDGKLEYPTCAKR

B1: Sbi-III-IV(K173A) (domain or fragment)
chain: not shown
notes: As used in SPR, ELISA and SAXS; also called K173A Sbi-III-IV; Sbi-III-IV mutant K173A; source: recombinant, from mutated pQE30:sbi-III-IV plasmid (QuikChange), purified
B2: factor H-related protein 1 (FHR-1), recombinant (natural protein, human, UniProt Q03591 19-330, looked up)
chain: EATFCDFPKINHGILYDEEKYKPFSQVPTGEVFYYSCEYNFVSPSKSFWTRITCTEEGWSPTPKCLRLCFFPFVENGHSESSGQTHLEGDTVQIICNTGYRLQNNENNISCVERGWSTPPKCRSTDTSCVNPPTVQNAHILSRQMSKYPSGERVRYECRSPYEMFGDEEVMCLNGNWTEPPQCKDSTGKCGPPPPIDNGDITSFPLSVYAPASSVEYQCQNLYQLEGNKRITCRNGQWSEPPKCLHPCVISREIMENYNIALRWTAKQKLYLRTGESAEFVCKRGYRLSSRSHTLRTTCWDGKLEYPTCAKR
notes: Complement factor H-related protein 1, human; secreted from CHO cells, so probably the mature protein

Tests used:
Factor H (FH) = molecular target: T2, Factor H (FH) (human, UniProt P08603 19-1231); test: SPR; Biacore S200, CM5 chip, 25°C, HBST (10 mM HEPES, 150 mM NaCl, 0.005% Tween 20, pH 7.4); surfaces: 800 RU opsonized C3b, iC3b made from it, or 600 RU amine-coupled C3d; series of Sbi-III-IV WT or K173A (4,050 to 1.8 nM) flowed alone or co-injected with FH, FHR-1, FHR-2, FHR-5 or FH19-20 at 100, 12.5, 20, 25 or 20 nM; conditions: both partners purified
T2 construct: Complement factor H, human, plasma purified; also called plasma purified FH; source: bought: Complement Technologies (plasma purified)

[1] = molecular target: T1, FH_(19−20) (C-terminal part of factor …); test: as above; conditions: both partners purified
[2] = molecular target: B2; test: as above; conditions: both partners purified
[3] = molecular target: the molecule itself; test: SAXS; Sbi-III-IV, C3d and FHR-1 combined 1:1:1 at 45 uM, in PBS; EOM ensemble modelling with P2 symmetry

Row | Binder | binding result (Factor H (FH)) | binding result [1] | binding result [2] | stoichiometry N [3]
1 | B1 | binds | binds | binds | –
2 | B2 | – | – | – | 2
